In this experiment the target is KLB + bFKB1. The experiment in a line: SPR; preformed bFKB1/KLB complex. (In general: SPR reads the build-up and loss of mass on a sensor chip optically.)

B1: FGFR1b (receptor)
chain: RPSPTLPEQAQPWGAPVEVESFLVHPGDLLQLRCRLRDDVQSINWLRDGVQLAESNRTRITGEEVEVQDSVPADSGLYACVTSSPSGSDTTYFSVNVSDALPSSEDDDDDDDSSSEEKETDNTKPNRMPVAPYWTSPEKMEKKLHAVPAAKTVKFKCPSSGTPNPTLRWLKNGKEFKPDHRIGGYKVRYATWSIIMDSVVPSDKGNYTCIVENEYGSINHTYQLDVVERSPHRPILQAGLPANKTVALGSNVEFMCKVYSDPQPHIQWLKHIEVNGSKIGPDNLPYVQILKTAGVNTTDKEMEVLHLRNVSFEDAGEYTCLAGNSIGLSHHSAWLTVLEALEERPAVMTSPLYLE
With B1, the off-rate constant (koff) was found to be 0.0402 s⁻¹.

B2: FGFR1c (receptor)
chain: RPSPTLPEQAQPWGAPVEVESFLVHPGDLLQLRCRLRDDVQSINWLRDGVQLAESNRTRITGEEVEVQDSVPADSGLYACVTSSPSGSDTTYFSVNVSDALPSSEDDDDDDDSSSEEKETDNTKPNPVAPYWTSPEKMEKKLHAVPAAKTVKFKCPSSGTPNPTLRWLKNGKEFKPDHRIGGYKVRYATWSIIMDSVVPSDKGNYTCIVENEYGSINHTYQLDVVERSPHRPILQAGLPANKTVALGSNVEFMCKVYSDPQPHIQWLKHIEVNGSKIGPDNLPYVQILKTAGVNTTDKEMEVLHLRNVSFEDAGEYTCLAGNSIGLSHHSAWLTVLEALEERPAVMTSPLYLE
Regarding B2, the koff was 0.00291 s⁻¹.

Usually koff stands for a measure of how fast the partners let go of each other.

(Values after patent US20250011471A1 (published 2025).)
